The assay deals with full-length Akt2 protein (Homo sapiens (Human)) (UniProt P31751). Briefly: affinity estimation from immunoassays capturing full-length Akt2 protein (FIG. 6D).

The values that follow come from patent publication US20220380409A1.

Ends that are not written are not given here. Tz4 = ring closure through triazole, 4-carbon linker to triazole

B1: Cy(YYTYT (SEQ ID NO:4)-Tz4) (peptide)
peptide: YYTYT
modifications: triazole (positions not given here) via Tz4; also: ring closed via triazole between non-natural alkyne and azide residues flanking the sequence, variable region only, constant region not given here
Turning to B1, the fold higher affinity than the corresponding linear peptide is 30 fold.
